The target in series [1] is T1, recombinant human MUC1-SEA (Homo sapiens, UniProt P15941).
T1 construct: on recombinant human MUC1-SEA on SPR; purchased Acrobiosystems MU1-H52H9
T1 sequence (P15941 1039-1148 limits assumed): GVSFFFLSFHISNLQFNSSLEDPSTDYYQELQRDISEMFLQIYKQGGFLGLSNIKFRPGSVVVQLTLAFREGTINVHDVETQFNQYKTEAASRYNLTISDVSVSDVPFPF
Put plainly: Binding strength by Surface Plasmon Resonance (SPR). Conditions: Table 2. As for the experimental part:
Binding strength assessment using Surface Plasmon Resonance (SPR): MUC1 antigen (Acrobiosystems, Cat: MU1-H52H9) was captured on the anti-His immobilized on CM5 chip at 5 μl/min flow rate for 60 s. Post this concentration range of 0-50 nM of antibody or ADC is passed over MUC1 antigen at a flow rate of 30 μl/min flow rate for 120 s, keeping dissociation time of 1800 s at 25°. The dose response generated is evaluated on BIAevaluation software for the calculation of affinity of antibody to antigen as measured by dissociation constant (KD).

Series [2] addresses T2, human MUC1 expressing DA3-TM cell line (Homo sapiens, UniProt P15941).
T2 construct: expressed in transfected cells; host or cells: DA3-TM (mouse cancer cell line)
The series is described as follows: Dose dependent binding by flow cytometry on DA3-TM cell line. Conditions: MUC1 positive DA3-TM cell line. An excerpt: Dose dependent binding of surface MUC1 expression on human cancer cells using flow cytometer: Human cancer cell lines (COLO357, HT29 and SKOV3) or mouse cancer cell line expressing human MUC1 (DA3-TM) were harvested enzymatically using 0.25% Trypsin and 0.2% EDTA in Dulbecco's Phosphate Buffered Saline (D-PBS), washed with excess cell culture media and re-suspended at a cell density of 1-2×10^6/mL in the cell-line specific cell culture media. The anti-MUC1-SEA mAb (chimeric or humanized IgG)/ADC or the reference IgG antibody/ADC were added to cells at a concentration range of 0-50 nM. The cells were maintained at 4° C. for 1 hour and washed with the excess cell culture media. These cells were further stained with goat anti-human IgG, Fcγ, conjugated with Alexa Fluor 647 (Jackson Immuno Research, West Grove, PA, USA) for 1 hour at 4° C. The concentration for goat anti-human IgG, Fcγ was as per the manufacturer's instructions. Cells were further washed with the excess cell culture media and re-suspended in 100 μl of cell culture media. Cell-associated fluorescence was detected and recorded using flow cytometry (Beckman Coulter, Cytoflex). The mean intensity of fluorescence was obtained from FlowJo software and graph was plotted in Graphpad prism of concentration versus mean intensity of fluorescence.

Series [3] deals with T3, human MUC1-expressing SKOV3 cell line (Homo sapiens, UniProt P15941).
T3 construct: endogenous in cells; host or cells: SKOV3, COLO357, HT29 (human cancer cell lines)
Put plainly: Binding by flow cytometry on SKOV3 cell line. An excerpt:
The CDR residues from mouse anti-MUC1 antibody (m5F3) VH- (SEQ ID NO: 1) and VL- (SEQ ID NO: 2) domains were identified according to the three antibody numbering systems and grafted onto the human framework region sequences VH- (SEQ ID NO: 3) and VL- (SEQ ID NO: 4) domains respectively. CDRs from 5F3 were chemically synthesized and subsequently cloned into mammalian expression vectors. The expression vectors with humanized 5F3 heavy chain and light chain were named as SP66-HC and SP66-LC respectively. The VH domain of SP66 is SEQ ID NO: 5, and the VL domain of SP66 is SEQ ID NO: 6. The antibody expressed with SP66-HC and SP66-LC was named as SP66. SP66 was transiently expressed in CHO cells and purified by Protein-A affinity chromatography and evaluated for its binding to the human MUC1 SEA domain using flow cytometry on the human MUC1-expressing SKOV3 cell line (FIG. 1).
Dose dependent binding of surface MUC1 expression on human cancer cells using flow cytometer: Human cancer cell lines (COLO357, HT29 and SKOV3) or mouse cancer cell line expressing human MUC1 (DA3-TM) were harvested enzymatically using 0.25% Trypsin and 0.2% EDTA in Dulbecco's Phosphate Buffered Saline (D-PBS), washed with excess cell culture media and re-suspended at a cell density of 1-2×10^6/mL in the cell-line specific cell culture media. […]
A general note: Flow cytometry measures light scatter and fluorescence of single cells or particles in a stream.

Series [4] concerns HT-29 cells. The series is described as follows: Growth inhibition of human cancer cell lines, HT-29. The format is cell-based. The settings on record: HT-29, no MUC1 expressing. The method, then: (§1) Human cancer cell lines (such as Colo357, HT29, SKOV3, BxPC3 and T47D) were seeded at 5000 cells/well in a 96-well plate flat bottom clear plate and allowed to adhere overnight. Next day, antibody/ADCs were added to these cells at the mentioned concentration or at a mentioned concentration range. Post 5-7 days of treatment, 20 μl of presto blue dye was added to wells and absorbance was recorded at 570 nm (600 nm reference wavelength). Percent survival was calculated against wells containing untreated cells in complete media and IC50 was calculated in Graphpad Prism.

Series [5] concerns SKOV-3 cells. The series is described as follows: Growth inhibition of human cancer cell lines, SKOV-3. The settings on record: SKOV-3, moderate MUC1 expressing. It is filed as cell-based. The method, then:
as §1

The subject of series [6] is COLO-357 pancreatic carcinoma cells. Put plainly: Growth inhibition of human cancer cell lines, COLO-357. The settings on record: COLO-357, high MUC1-SEA expressing.

T2 sequence (P15941 24-1255): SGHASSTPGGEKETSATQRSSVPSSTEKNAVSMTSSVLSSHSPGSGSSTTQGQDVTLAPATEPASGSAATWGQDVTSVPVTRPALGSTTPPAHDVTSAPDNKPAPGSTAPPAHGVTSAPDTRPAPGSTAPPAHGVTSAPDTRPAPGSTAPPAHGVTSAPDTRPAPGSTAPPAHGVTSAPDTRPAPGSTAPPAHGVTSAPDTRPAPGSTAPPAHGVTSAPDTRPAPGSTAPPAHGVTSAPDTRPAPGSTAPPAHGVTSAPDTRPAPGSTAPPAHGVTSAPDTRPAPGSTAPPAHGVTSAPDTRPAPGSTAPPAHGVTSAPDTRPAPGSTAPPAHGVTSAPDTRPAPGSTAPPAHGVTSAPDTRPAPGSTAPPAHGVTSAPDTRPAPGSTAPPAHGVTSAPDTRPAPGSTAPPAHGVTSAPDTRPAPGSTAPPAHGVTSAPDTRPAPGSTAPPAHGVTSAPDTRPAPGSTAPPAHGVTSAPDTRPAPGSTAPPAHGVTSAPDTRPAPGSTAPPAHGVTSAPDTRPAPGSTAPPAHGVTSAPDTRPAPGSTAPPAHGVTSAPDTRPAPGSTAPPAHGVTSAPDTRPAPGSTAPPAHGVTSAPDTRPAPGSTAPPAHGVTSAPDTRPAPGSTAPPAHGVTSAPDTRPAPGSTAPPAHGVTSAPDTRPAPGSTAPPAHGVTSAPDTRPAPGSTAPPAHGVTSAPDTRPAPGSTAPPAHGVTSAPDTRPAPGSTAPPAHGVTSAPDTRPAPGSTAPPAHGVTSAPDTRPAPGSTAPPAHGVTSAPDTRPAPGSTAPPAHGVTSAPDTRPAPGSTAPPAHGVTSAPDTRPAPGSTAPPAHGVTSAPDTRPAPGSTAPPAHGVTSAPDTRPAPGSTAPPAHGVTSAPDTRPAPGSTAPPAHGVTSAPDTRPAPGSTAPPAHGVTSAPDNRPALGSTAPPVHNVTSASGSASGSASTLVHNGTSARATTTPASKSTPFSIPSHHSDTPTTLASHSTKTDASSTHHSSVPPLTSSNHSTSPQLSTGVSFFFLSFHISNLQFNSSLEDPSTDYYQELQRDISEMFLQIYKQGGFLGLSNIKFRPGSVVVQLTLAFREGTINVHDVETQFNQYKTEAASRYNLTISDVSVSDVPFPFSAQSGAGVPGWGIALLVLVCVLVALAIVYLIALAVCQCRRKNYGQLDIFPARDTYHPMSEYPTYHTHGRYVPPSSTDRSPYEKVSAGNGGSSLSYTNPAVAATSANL
T3 sequence (P15941 24-1255): as above

B1: chi 5F3: chimeric anti-MUC1 SEA antibody of WO 2021/186427; variable regions SEQ ID NOs: 42 and 43; parent of the humanized antibodies (antibody, V domains shown)
VH: MRVLILLCLFTAFPGVLSDVQVQESGPDLVKPSQSLSLTCTVTGHSITRGSSWHWIRQFPGNKLEWMGYIHYGGGTSYNPSLKSRISITRDTSKNQFFLQLNSVTTEDTATFFCARYSYDITYRWFFDVWGAGTTVIVSS
VL: MVSTPQFLVFLLFWIPASRGDILLTQSPAILSVSPGERVSFSCRASQNIGTSIHWYQQRKNGSPRLLIKYASESISGIPSRFSGSGSGTDFTLSINSVESEDMADYYCQQNNNWPLTFGAGTKLELK
notes: chimeric anti-MUC1 SEA antibody of WO 2021/186427; parent of the humanized antibodies
For B1, in series [1], the Kd came to 0.0427 nM and the kd was determined as 0.000188 s⁻¹. In addition, binding in series [2] was put at a Kd of 1 ± 0.1 nM.

B2: SP66: CDR-grafted humanized 5F3; VH SEQ ID NO: 5, VL SEQ ID NO: 6 (antibody, V domains shown)
VH: EIQLVQSGAEVKKPGSSVKVSCKASGHSITRGSSWHWMRQAPGQGLEWIGYIHYGGGTSYNPSLKSRATLTVDTSTNTAYMELSSLRSEDTAFYFCARYSYDITYRWFFDVWGQGTLVTVSS
VL: DIQMTQSPSTLSASVGDRVTITCRASQNIGTSIHWFQQKPGKAPKLLMYRASESISGVPSRFSGSGSGTEFTLTISSLQPDDFATYYCQQNNNWPLTFGQGTKVEVK
For B2, the “binding by flow cytometry (in words)” value in series [3] was “unable to bind”. The “cytotoxic effect / growth inhibition (in words)” value in series [4], in series [5] and in series [6] was “No growth inhibition” throughout.

B3: HM3 LM2: variant of SP66; VH HM3 SEQ ID NO: 9, VL LM2 SEQ ID NO: 13 (antibody, V domains shown)
VH: EIQLVQSGAEVKKPGSSVKVSCKVTGHSITRGSSWHWMRQAPGQGLEWIGYIHYGGGTSYNPSLKSRATLTRDTSTNTAYMELSSLRSEDTAFYFCARYSYDITYRWFFDVWGQGTLVTVSS
VL: DIQMTQSPSTLSASVGDRVTITCRASQNIGTSIHWYQQKPGKAPKLLIKRASESISGVPSRFSGSGSGTEFTLTISSLQPDDFATYYCQQNNNWPLTFGQGTKVEVK
Take B3: the kd in series [1] was 0.000492 s⁻¹.

B4: HM3 LM3: variant of SP66; VH HM3 SEQ ID NO: 9, VL LM3 SEQ ID NO: 14 (antibody, V domains shown)
VH: EIQLVQSGAEVKKPGSSVKVSCKVTGHSITRGSSWHWMRQAPGQGLEWIGYIHYGGGTSYNPSLKSRATLTRDTSTNTAYMELSSLRSEDTAFYFCARYSYDITYRWFFDVWGQGTLVTVSS
VL: DIQMTQSPSTLSASVGDRVTITCRASQNIGTSIHWYQQKPGKAPKLLIKYASESISGVPSRFSGSGSGTEFTLTISSLQPDDFATYYCQQNNNWPLTFGQGTKVEVK
As to B4, the kd in series [1] was found to be 0.00347 s⁻¹.

B5: HM5 LM2: variant of SP66; VH HM5 SEQ ID NO: 11, VL LM2 SEQ ID NO: 13 (antibody, V domains shown)
VH: EIQLVQSGAEVKKPGSSVKVSCKVTGHSITRGSSWHWMRQAPGQGLEWIGYIHYGGGTSYNPSLKSRITITRDTSTNTFYMELSSLRSEDTAFYFCARYSYDITYRWFFDVWGQGTLVTVSS
VL: DIQMTQSPSTLSASVGDRVTITCRASQNIGTSIHWYQQKPGKAPKLLIKRASESISGVPSRFSGSGSGTEFTLTISSLQPDDFATYYCQQNNNWPLTFGQGTKVEVK
On to B5, for which the kd in series [1] is 0.000213 s⁻¹.

B6: HM5 LM3: variant of SP66; VH HM5 SEQ ID NO: 11, VL LM3 SEQ ID NO: 14 (antibody, V domains shown)
VH: EIQLVQSGAEVKKPGSSVKVSCKVTGHSITRGSSWHWMRQAPGQGLEWIGYIHYGGGTSYNPSLKSRITITRDTSTNTFYMELSSLRSEDTAFYFCARYSYDITYRWFFDVWGQGTLVTVSS
VL: DIQMTQSPSTLSASVGDRVTITCRASQNIGTSIHWYQQKPGKAPKLLIKYASESISGVPSRFSGSGSGTEFTLTISSLQPDDFATYYCQQNNNWPLTFGQGTKVEVK
For the molecule B6, the kd in series [1] came to 0.000198 s⁻¹.

B7: HM2 LM2: variant of SP66; VH HM2 SEQ ID NO: 8, VL LM2 SEQ ID NO: 13 (antibody, V domains shown)
VH: EIQLVQSGAEVKKPGSSVKVSCKVTGHSITRGSSWHWMRQAPGQGLEWIGYIHYGGGTSYNPSLKSRITITRDTSTNTAYMELSSLRSEDTAFYFCARYSYDITYRWFFDVWGQGTLVTVSS
VL: DIQMTQSPSTLSASVGDRVTITCRASQNIGTSIHWYQQKPGKAPKLLIKRASESISGVPSRFSGSGSGTEFTLTISSLQPDDFATYYCQQNNNWPLTFGQGTKVEVK
With B7, the kd in series [1] was found to be 0.000255 s⁻¹.

B8: HM4 LM3: variant of SP66; VH HM4 SEQ ID NO: 10, VL LM3 SEQ ID NO: 14 (antibody, V domains shown)
VH: EIQLVQSGAEVKKPGSSVKVSCKVTGHSITRGSSWHWMRQAPGQGLEWIGYIHYGGGTSYNPSLKSRATLTRDTSTNTFYMELSSLRSEDTAFYFCARYSYDITYRWFFDVWGQGTLVTVSS
VL: DIQMTQSPSTLSASVGDRVTITCRASQNIGTSIHWYQQKPGKAPKLLIKYASESISGVPSRFSGSGSGTEFTLTISSLQPDDFATYYCQQNNNWPLTFGQGTKVEVK
For the molecule B8, the kd in series [1] worked out at 0.000238 s⁻¹.

B9: HM4 LM2: variant of SP66; VH HM4 SEQ ID NO: 10, VL LM2 SEQ ID NO: 13 (antibody, V domains shown)
VH: EIQLVQSGAEVKKPGSSVKVSCKVTGHSITRGSSWHWMRQAPGQGLEWIGYIHYGGGTSYNPSLKSRATLTRDTSTNTFYMELSSLRSEDTAFYFCARYSYDITYRWFFDVWGQGTLVTVSS
VL: DIQMTQSPSTLSASVGDRVTITCRASQNIGTSIHWYQQKPGKAPKLLIKRASESISGVPSRFSGSGSGTEFTLTISSLQPDDFATYYCQQNNNWPLTFGQGTKVEVK
Turning to B9, in series [1], the kd stood at 0.000261 s⁻¹.

B10: HM2 LM3: variant of SP66; VH HM2 SEQ ID NO: 8, VL LM3 SEQ ID NO: 14 (antibody, V domains shown)
VH: EIQLVQSGAEVKKPGSSVKVSCKVTGHSITRGSSWHWMRQAPGQGLEWIGYIHYGGGTSYNPSLKSRITITRDTSTNTAYMELSSLRSEDTAFYFCARYSYDITYRWFFDVWGQGTLVTVSS
VL: DIQMTQSPSTLSASVGDRVTITCRASQNIGTSIHWYQQKPGKAPKLLIKYASESISGVPSRFSGSGSGTEFTLTISSLQPDDFATYYCQQNNNWPLTFGQGTKVEVK
Take B10: in series [1], the kd worked out at 0.000188 s⁻¹.

The term Kd denotes the equilibrium constant for the complex coming apart.

(Values after patent publication US20250041437A1, “HUMANIZED MUC1 ANTIBODY AND ANTIBODY DRUG CONJUGATE” (Sun Pharma Advanced Research Company Limited, priority 2023, published 2025).)
